B1: 993 (protein)
chain: MKKLLLCLCFLAIGFLSNAKIKPTQLTCEYLKNPSVVDVLQPRLAWINVADAGERGQEQTAYQIRVASLKEKLENADLWDSGKVKDDASIRVKYDGEKLVSRQDCWWQVRVWDKNNEVSEWSEPAYWHMGLLNENDWTANWIGVPWQGEETLPKPASPAATLPGELPPPAPLFRKEFNATKQVEKAVAYVTGLGYFELYLNGEKVGDDVLVPNQTNYGKRPALTQQYIPLDDNFKEYKVMYLAYDISDQLVSGANTFGAILGNGFYNPSKHWALGYGTPRLLVQVHVAYTDGTEELIVSDESWKVSKSPILMDMVYYGEHYDARLEQDGWCSAGFDDSAWENAILRKAPEGKLVAHTAHPDKVYETLQPVRIEKMYNGNYKVDFGEEISGWVRLKNVEGPEGHKVKINYLSNNYSGDNSYIFKGEGKENYAARFNWFVFREVEIENWPGVLAPENICAEAINTYIEESAHFETSNPLFNQVNKIWKRSQTDNMHGGIASDCPHRERSPYTGDGQVACVTVMHNFDAQNFYYKWIHDMIGAQNVKTGYVPNGAPWQPGCGGGVAWGAAINIIPWEFYVHYGAVDMLEEAYEPMKEYVRYMQTWVNNEGIMNSQRVGLDGNVLQWFNLGEWVTPGDLPPDSLVHTFYFWRCADITAKTAEILGKRKEAKRNRELAETTQSAFHKCFFDAEKGTYGNAGANIFALKMGVPENEYQRVINALKANIKKNKGHLDTGIFGTQFFFEVLSENGLHELAYEAMNKKEEPGYGRWLTLGATTSWENWNTDGSHNHPMFGGGLVWLYRKLAGMQADEKNPGYRHIIFHPQPIKELEFAEYFNKTPYGKAGIKWQQTEGKLSVGVTVPVGCTATVILPGGHFLADGKAMEKVAEVQLVSQKEDELIIKVGAGNYQFSN
modifications: Draconibacterium orientale
B2: 992 (protein, listed as Roseburia intestinalis)
chain: MGKIYAAKTNHITNPIGFNMDSIAFSWKVKGCRGQEQKYARIVISKNKTFTDICYDTGETELDSLSTRVEFEIQPYTRYYWKVIVTTDVEEVIESDVQFFETAKMDEPWTGRWITCDSSQERHPIFSKRIEPKKEVKSARLYICGLGLYEAYFLGENKENPKKIGDEYLTPYCNNYDRWIQYQTYDITEQAERGGVLSVLLGNGWYKGRFGFNDPEREAYYGDEWKLIAEVHIEYKDGTKDVISSDETWSVTRSNLWFSNIYDGERRDDTLPPVEESPARIAKAPKGRLMERLSLPVKVQEEMKPAELIHTPAGEDVFDLGQEITGIFQLRVNEPSGTIIRIQTGEILQDGCFYNENLRTALSEYVYVSDGMEKVIIPHFTYYGYRYVKVSGVTNLSCEDFMAIVLYSDYESIGTVETGSELVNKLISNIEWGMKGNFLDVPTDCPQRDERMGWTGDTQVFSATASYLADTYAFYRKYLYDLYQEQLLAGGMVPEIVPTFGPTKCSCAWGDAACIIPWNVYLFSGDKTILENQIESMKAWVDYIRRIDGDHHGWRQVFHYGDWLALDRTGAAANSVYGATDEAYIADIYYAASAQIVAKAAEVLGLEETRQEYHKIADRQWQVVKEEYFTATGRCAVKTQTGLILALKYHLSENEELTREMLKKLLRDNKNKLNTGFVGTPLLCNVLTDHGMTDAAYRLLLNEEYPGWLHEVKLGATTVWERWNSLDESGHVSSTGMNSLNHYSYGAILEWIFRHAAGIDVMEQSPGGKVMRISPKVNSELKYVKAVYDSATGCYQCGWEILEGNKITITVTVPFGGKAEVVLPYAPECIYEDIENPLFEAVENGICHVKAGEYEVVYEASEPLKKRYSIDSTMEELLNHPDIRAFLSQMVEVDMIPDIAYGLSLRDVAKTFAGEIKPDEAQMLDKALAKF
B3: 1077 (protein, listed as Bacillus sp.)
chain: MAGRNWNASWIWGGQEESPRNEWRCFRGSFDAPASVEGPAMLHITADSRYVLFVNGEQVGRGPVRSWPKEQFYDSYDIGGQLRPGVRNTIAVLVLHFGVSNFYYLRGRGGLIAEIEADGRTLAATDAAWRTERLGGQRSNSPRMACQQGFGEVIDARELAEDWALPAFDDGGWAQARSIGPAGTAPWTSLVPRDIPFLTEEKLYPASIQSLSRVKAPKYAAALDLRNQMVPESVNHANPVSYCGYVATILTLETSGVVTLGFPTGVRGSGVWVDGVLQTEWTGVQPERYYSLNLAAGEHLVLVDITSSDHGGSSHFAIDSEAAFTLRSPAGDNGVPLATIGTFDQSEYIDHRPGRRMQTDHPDYRALPEAAPTAAALEAFASWVKPFEPSLYTEENVFGSNVWRTLAERRAVPRSVLNAILPVPEPGVLPVFEDGDCELVIDLGAERSGFIGFELEAPAGTIIDAYGVEYMREGYTQHTYGLDNTFRYICREGRQSYVSPVRRGFRYLFLTVRGNSAPVKLHEIYIRQSTYPVAEQGSFRCSDALLNATWEISRHTTRLCMEDTFVDCPSYEQVFWVGDSRNEALVNYYVFGETEIVERCLNLVPGSADETPLYLDQVPSAWSSVIPNWTFFWILACREYAAHTGNEAFAARIWPAVKHTLTHYLEHIDDSGLLNMAGWNLLDWAPIDQPNEGIVTHQNLFLVKALRDSRALAAAAGATEEADAFAARADLLAETINAVLWDEEKRAYIDCIHADGRRSDVYSMQTQVVAYLCGVAQGEREAVIEGYLSSPPPAFVQIGSPFMSFFYYEALEKAGRQTLMLDDIRRNYGQMLRYDATTCWEMYPNFAENRSNPDMLTRSHCHAWSAAPGYFLGSSILGVKRGADGWRTVDIAPQPCDLTWAEGVVPLPQGGHIAVSWEFVSAGKLKLRIEAPEDIEVNVTLPEGIEGEVTQVKYMS
B4: 1003 (protein, listed as Rahnella aquatilis)
chain: MPAVIRLTLNQESALSGVQQLPVLGWEIESRNRNVRQTAYRLQISQDQDFDNILLRGEWQESECSNNIPLTELMLTSSQHYFIRVQVRDNYGETSGWSSPAQMITGVLYPHEWLADFITAETSADKDNSHATLLRKSFVLNRAQDIQSAFIHVSALGLYELYLNGHKAGEDALTPGWTSYHNHLLYQTYDVTGHLEKGENVIGAILGAGWYKGDMGFSRHRNYYGERSALISQLVINYNDGSQEIVISDESWKGQDSAILFSEIYDGEIYDARREIPGWCTKDVSGEGWRPVSLVTHEKSTLVAQGSNTVRKMAEIKPVALITTPQGDTVIDFGQNLSGWVEFRVSGKAGDEVVLRHFEVLDADGNVYLDNLRTARQRTAYVLKGEGEEIWHPHFTWQGFRFVKVEEYPGQWDLNNFTAIVLHSAMEQTGHFACSNPQLNQLHHNILWGLKGNFVDVPTDCPQRDERLGWTGDAQIFCRTASYLMQTRNFFAKWLTDLRYDQTPEGGVPHVIPDILTGYCGKDRLLSEGGTHSASAWADAAVINPWTMYLMYGDTCVLENQYASMKGWIDFMTAHAENHIWHYKLQFGDWVALDAKEGSYFGATPNDLTCTAYYAYSTQLFAKAAKVLNRTEDYDHYHALYQAIVRRFQEAFFTPSGQLAARTQTAHILALYFNLVPDEFRQRTTDTLVELLNEHDGHLVTGFVGTPYFCHALSQNGRTKEAWNLLLKEDFPSWLYQVKAGATTVWEHWDGIKPDGSMWSADMNSFNHYAYGAVGEWLYRVAAGIEADEAQPGFKHFIIKPLTGGGLSWLDTRYQSIYGAIGVRWEVSGQTVFLNVTVPANTSATVVLTDGQSVQEADGIDFARCAEGYTAEVGSGEYRIEYRLV

Assays:
Format in all cases: biochemical, Quillaja saponaria
[1] = Experiment 6-1: screening of rhamnosidases for derhamnosylation of saponins in treated bark extract (2%), QS-17 2310 to QS-18 2164 (PAR %); conditions: TBE 2%, pH 7.5, 30 degC, 18 h; TIC peak area ratio percent, LCMS/MS; negative controls 3.061, 2.429
[2] = Experiment 6-1: screening of rhamnosidases for derhamnosylation of saponins in treated bark extract (2%), desglucosyl-QS-17 2134 to QS-21 1988 (PAR %); conditions: TBE 2%, pH 7.5, 30 degC, 18 h; TIC peak area ratio percent, LCMS/MS; negative controls 2.719, 2.158
[3] = Experiment 6-1: screening of rhamnosidases for derhamnosylation of saponins in treated bark extract (2%), QS-17 2296 to QS-18 2150 (PAR %); conditions: TBE 2%, pH 7.5, 30 degC, 18 h; TIC peak area ratio percent of rhamnosylated starting saponin to derhamnosylated product, LCMS/MS; negative controls 4.876, 5.225
[4] = Experiment 6-3: screening of rhamnosidases for derhamnosylation of saponins in crude bark extract (80%), relative % of Left, Middle and Right Peak by UV HPLC; conditions: CBE 80%, pH 7.4, 30 degC, 19.5 h; for Left Peak: mainly QS-17 family, negative control 27%; for Middle Peak: mainly QS-18 and desglucosyl-QS-17 family, negative control 48%; for Right Peak: mainly QS-21 family, negative control 26%
How it was run: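 Clarified lysates of expressed rhamnosidase variants were incubated with crude bark extract (pH 7.4, final 80%) at 30 degC with shaking for 19.5 h, then quenched with MeCN+2% AcOH. UV HPLC gave relative % of Left (QS-17), Middle (QS-18/desglucosyl-QS-17) and Right (QS-21) peaks.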

[5] = Experiment 6-1: specificity of rhamnosidases towards other rhamnose residues (C3 saccharide rhamnose, C28 saccharide rhamnose); conditions: TBE 2%, pH 7.5, 30 degC, 18 h; LCMS/MS; negative controls 0.18, 0.17
[6] = Experiment 6-2: screening of rhamnosidases for derhamnosylation of saponins in treated bark extract (25%), relative % of Left, Middle and Right Peak by UV HPLC; conditions: TBE 25%, pH 7.4, 19.5 h; for Left Peak: mainly QS-17 family, negative control 24%; for Middle Peak: mainly QS-18 and desglucosyl-QS-17 family, negative control 50%; for Right Peak: mainly QS-21 family, negative control 26%

Molecule	Peak57 (PAR %) [1] [%]	Peak75 (PAR %) [2] [%]	QS-17 (PAR %) [3] [%]	Left Peak [4] [%]	Middle Peak [4] [%]	Right Peak [4] [%]	ratio PP/QS-21 [5]	Left Peak [6] [%]	Middle Peak [6] [%]	Right Peak [6] [%]
B1	1.129	2.211	3.836	25	49	26	0.18	18	56	27
B2	0.000	0.000	0.000	21	49	30	0.20	7	62	31
B3	2.532	2.138	3.964	26	48	27	0.18	23	51	26
B4	0.000	0.000	0.000	27	47	26	0.19	7	63	31

Reference: patent US20240026407A1, “MODIFICATION OF SAPONINS” (GLAXOSMITHKLINE BIOLOGICALS SA, priority 2020, published 2024)
